In publication PMC3927496:

B1: Linker 10 (15-mer-T10-29-mer) (structured_DNA)
DNA: GGTTGGTGTGGTTGGTTTTTTTTTTAGTCCGTGGTAGGGCAGGTTGGGGTGACT
B2: VEa5 (ssDNA)
DNA: ATACCAGTCTATTCAATTGGGCCCGTCCGTATGGTGGGTGTGCTGGCCAGATAGTATGTGCAATCA

Assays:
thrombin = thrombin (UniProt P00734;P00734 328-363;364-622); test: SPR
VEGF165 = VEGF165 (Homo sapiens, UniProt P15692-4 27-191); test: SPR

| Binder | Kd (thrombin) | Kd (VEGF165) |
| --- | --- | --- |
| GGTTGGTGTGGTTGGTTTTTAGTCCGTGGTAGGGCAGGTTGGGGTGACT (structured_DNA) [Linker 5 (15-mer-T5-29-mer)] | 0.06 nM |  |
| GGTTGGTGTGGTTGGAGTCCGTGGTAGGGCAGGTTGGGGTGACT (structured_DNA) [Linker 0 (15-mer-29-mer)] | 0.14 nM |  |
| B1 | 0.74 nM |  |
| B2 |  | 116 nM |
